According to patent US20110033389A1 (published 2011):

B1: AC8FabTAT (Fab, V domains shown)
VH: QVQLVQSGAEVKKPGSSVKVSCKASGGSFSSYAINWVRQAPGQGLEWMGGLMPIFGTTNYAQKFQDRLTITADVSTSTAYMQLSGLTYEDTAMYYCARVAYMLEPTVTAGGLDVWGQGTTVTVAS
VL: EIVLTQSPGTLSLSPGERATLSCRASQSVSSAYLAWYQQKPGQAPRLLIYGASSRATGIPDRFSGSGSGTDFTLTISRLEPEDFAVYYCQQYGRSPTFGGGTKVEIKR
B2: AC8 Fab (Fab, V domains shown)
VH: B1 VH
VL: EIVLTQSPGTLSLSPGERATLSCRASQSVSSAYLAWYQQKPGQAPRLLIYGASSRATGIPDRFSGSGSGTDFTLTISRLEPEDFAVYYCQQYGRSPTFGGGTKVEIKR

Legend:
Assay in all cases: cell-based or functional assay
[1] = molecular target: T1, glycoprotein D of Herpes simplex virus, on HSV-1 virus (Herpes simplex virus (HSV-1 virus in …, UniProt A1Z0Q5 26-394))
[2] = molecular target: T1, glycoprotein D of Herpes simplex virus, …; remark: listed apart in the source
[3] = molecular target: T1, glycoprotein D of Herpes simplex virus, …; remark: listed apart in the source

Binder	Plaque Reduction Rate Percentage (Average plaque number per plate) at 0.2 µg/ml; virus prevention assay (cells pre-treated with antibody, washed, then HSV-1) [1] [%]	Plaque Reduction Rate Percentage (Average plaque number per plate) at 0.6 µg/ml; virus prevention assay (cells pre-treated with antibody, washed, then HSV-1) [1] [%]	Plaque Reduction Rate Percentage (Average plaque number per plate) at 1.9 µg/ml; virus prevention assay (cells pre-treated with antibody, washed, then HSV-1) [1] [%]	Plaque Reduction Rate Percentage (Average plaque number per plate) at 5.6 µg/ml; virus prevention assay (cells pre-treated with antibody, washed, then HSV-1) [1] [%]	Plaque Reduction Rate Percentage (Average plaque number per plate) at 16.7 µg/ml; virus prevention assay (cells pre-treated with antibody, washed, then HSV-1) [1] [%]	Plaque Reduction Rate Percentage (Average plaque number per plate) at 50 µg/ml; virus prevention assay (cells pre-treated with antibody, washed, then HSV-1) [1] [%]	ED50 against HSV-1 infection; virus prevention assay (cells pre-treated with antibody, washed, then HSV-1) [2] [µg/mL]	Plaque Reduction Rate Percentage (Average plaque number per plate) at 0.012 µg/ml; HSV-1 neutralization in solution [3] [%]	Plaque Reduction Rate Percentage (Average plaque number per plate) at 0.037 µg/ml; HSV-1 neutralization in solution [3] [%]	Plaque Reduction Rate Percentage (Average plaque number per plate) at 0.11 µg/ml; HSV-1 neutralization in solution [3] [%]	Plaque Reduction Rate Percentage (Average plaque number per plate) at 0.33 µg/ml; HSV-1 neutralization in solution [3] [%]	Plaque Reduction Rate Percentage (Average plaque number per plate) at 1 µg/ml; HSV-1 neutralization in solution [3] [%]	Plaque Reduction Rate Percentage (Average plaque number per plate) at 3 µg/ml; HSV-1 neutralization in solution [3] [%]	ED50; plaque reduction assay, HSV-1 neutralization in solution [2] [µg/mL]
B1	0	0	0	13	37	68	27	0	14	33	77	100	100	–
B2	–	–	–	–	–	–	–	–	–	–	–	–	–	~0.2
